According to IntAct's records for PubMed 25465129:

Molecular target: ab1ip_mouse Apbb1ip (UniProt Q8R5A3)
UniProt Q8R5A3, sequence (Q8R5A3 whole entry): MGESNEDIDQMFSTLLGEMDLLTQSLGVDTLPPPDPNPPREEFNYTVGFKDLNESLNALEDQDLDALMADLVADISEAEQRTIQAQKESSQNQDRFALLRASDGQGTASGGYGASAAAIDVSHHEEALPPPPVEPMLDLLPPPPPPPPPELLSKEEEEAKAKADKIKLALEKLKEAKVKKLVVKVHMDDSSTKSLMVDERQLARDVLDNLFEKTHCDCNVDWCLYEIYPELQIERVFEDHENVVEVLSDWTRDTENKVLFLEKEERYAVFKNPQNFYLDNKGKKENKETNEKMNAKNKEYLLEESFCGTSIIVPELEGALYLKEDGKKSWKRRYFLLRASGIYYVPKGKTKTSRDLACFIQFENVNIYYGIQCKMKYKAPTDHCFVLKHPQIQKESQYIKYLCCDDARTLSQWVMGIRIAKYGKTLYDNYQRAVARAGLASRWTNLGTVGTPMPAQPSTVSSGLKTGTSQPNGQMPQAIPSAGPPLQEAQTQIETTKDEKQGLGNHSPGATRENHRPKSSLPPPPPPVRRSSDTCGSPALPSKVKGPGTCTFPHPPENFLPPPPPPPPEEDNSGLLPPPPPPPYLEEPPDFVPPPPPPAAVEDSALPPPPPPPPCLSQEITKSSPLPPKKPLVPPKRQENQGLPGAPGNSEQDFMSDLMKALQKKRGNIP

Substance | effect of a mutation on the interaction
Talin-1 (Mus musculus), P26039 V1540Y | decreasing interaction strength
Talin-1 (Mus musculus), P26039 V871Y;V1540Y | disrupting interaction strength
Talin-1 (Mus musculus), P26039 V871Y | decreasing interaction strength
